{"source": "patent US20220072120A1", "about": "(University of Washington, published 2022)", "binders": {"B1": {"name": "I53-dn5 A.2 (A_LF2_W16G_LS) (designed binder)", "chain": "MGKYDGSKLRIGILHARGNAEIILELVLGALKRLQEFGVKRENIIIETVPGSFELPYGSKLFVEKQKRLGKPLDAIIPIGVLIRGSTAHFDYIADSTTHQLMKLNFELGIPVIFGVLTTESDEQAEERAGTKAGNHGEDWGAAAVEMATKFN"}}, "molecular_target": "I53-dn5 B", "assay": "in vitro nanoparticle assembly; SEC on Superose 6, SDS-PAGE", "data": [{"binder": "B1", "values": [{"measurement": "binding result", "value": "binds"}]}]}
